From the supplement of paper PMC6757056
± gives the standard deviation of the averaged measurements.

B1: library; a variant is named by its letters at N, in order (parent)
chain: GCUGUCACCGAGAAACUGUGAAGUAUAUCUUAAACCUGGGCACUUAAAAGAUAUAUGGAGUUAGUAGUGCAACCUGCUCGGUCUGAUGAGUCCNNNNNNGGACGAAACAGC

Legend:
[1] = variants of: B1; assay: FACS-Seq fitted mean relative fluorescence mCherry/BFP without ligand (log10 relative fluorescence); HEK293T; ligand: cyclic di-GMP (c-di-GMP-II aptamer); higher = higher reporter protein expression; conditions: ligand present: no
Method in brief: (§1)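 After lentiviral transduction, HEK293T library cells bearing an mCherry ribozyme-switch reporter and an EF1α-BFP marker were enriched. They were then held for 48 h with or without ligand and sorted by mCherry/BFP into 6 bins, and each bin's genomic DNA was PCR-amplified, barcoded and MiSeq-sequenced. Fluorescence is expressed as a normalized fitted mean: the normal mean of log10(mCherry/BFP) bin counts, scaled to five spiked-in control ribozymes.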

[2] = variants of: B1; assay: normalized RNA/DNA level without ligand (relative to sTRSVctl = 100) (log10 (% of sTRSVctl)); HEK293T; ligand: cyclic di-GMP (c-di-GMP-II aptamer); higher = less ribozyme self-cleavage, higher mRNA level; conditions: reporter: mCherry (pCS4076), ligand present: no
Method in brief: (§2)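 Ribozyme switch library plasmids with mCherry reporters (eGFP in certain ligand experiments) went into HEK293T cells at 4 µg per 6-well well. Where ligand was used, it was applied 1 h before transfection, and total RNA was extracted with EDTA 72 h later for reverse transcription, amplification, barcoding and sequencing. RNA level is the RNA-to-DNA read ratio normalized to a spiked-in non-cleaving sequence or to the leading sequences, then scaled and log-transformed. Scaling was ×100 with log10, the leading set comprised 25 sequences, and the cutoff was ≥100 DNA reads.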

[3] = variants of: B1; assay: FACS-Seq fitted mean relative fluorescence mCherry/BFP with ligand (log10 relative fluorescence); HEK293T; ligand: cyclic di-GMP (c-di-GMP-II aptamer); ligand concentration (+) FACS-Seq: 1 mM; higher = higher reporter protein expression; conditions: ligand present: yes
Method in brief: as §1

[4] = variants of: B1; assay: normalized RNA/DNA level with ligand (relative to sTRSVctl = 100) (log10 (% of sTRSVctl)); HEK293T; ligand: cyclic di-GMP (c-di-GMP-II aptamer); ligand concentration (+) RNA-Seq: 1 mM; higher = less ribozyme self-cleavage, higher mRNA level; conditions: reporter: mCherry (pCS4076), ligand present: yes
Method in brief: as §2

| Variant | FACS-Seq fitted mean (log10) [1] | normalized RNA/DNA level without ligand (log10) [2] | FACS-Seq fitted mean (log10) [3] | normalized RNA/DNA level with ligand (log10) [4] |
| --- | --- | --- | --- | --- |
| UUACUA | -0.111 ± 0.12 | 1.64 ± 0.029 | 0.155 ± 0.095 | 1.77 ± 0.13 |
| AUAGGG | -0.534 ± 0.02 | 1.41 ± 0.12 | -0.187 ± 0.073 | 1.59 ± 0.15 |
| AUAGGU | -0.384 ± 0.071 | 1.51 ± 0.061 | -0.171 ± 0.092 | 1.69 ± 0.14 |
| GUGCCG | -0.423 ± 0.023 | 1.828 ± 0.017 | -0.15 ± 0.011 | 1.92 ± 0.11 |
| CUCAGA | -0.23 ± 0.18 | 1.64 ± 0.041 | 0.0277 ± 0.043 | 1.78 ± 0.064 |
| GUGAGA | -0.476 ± 0.052 | 1.41 ± 0.058 | -0.164 ± 0.051 | 1.6 ± 0.089 |
| CUCCUA | -0.0767 ± 0.066 | 1.44 ± 0.12 | 0.0398 ± 0.14 | 1.68 ± 0.14 |
| UUGAUG | -0.5233 ± 0.005 | 1.547 ± 0.013 | -0.419 ± 0.053 | 1.75 ± 0.14 |
| UUAUAU | -0.127 ± 0.066 | 1.68 ± 0.0031 | 0.0702 ± 0.1 | 1.8 ± 0.081 |
| GUCGGA | -0.0744 ± 0.052 | 1.51 ± 0.073 | 0.242 ± 0.025 | 1.7 ± 0.071 |
| GUAGGA | -0.422 ± 0.02 | 1.43 ± 0.081 | -0.137 ± 0.14 | 1.64 ± 0.11 |
| GUCACU | -0.159 ± 0.13 | 1.708 ± 0.0022 | 0.131 ± 0.035 | 1.85 ± 0.08 |
| GUCACG | -0.35 ± 0.017 | 1.64 ± 0.028 | -0.131 ± 0.21 | 1.84 ± 0.085 |
| AUGCCA | -0.283 ± 0.032 | 1.704 ± 0.0062 | 0.176 ± 0.089 | 1.84 ± 0.08 |
| UUAUGG | -0.0165 ± 0.12 | 1.74 ± 0.053 | 0.213 ± 0.035 | 1.85 ± 0.13 |
| UUAUGA | -0.781 ± 0.045 | 1.63 ± 0.025 | -0.563 ± 0.026 | 1.81 ± 0.12 |
| UUCACU | -0.67 ± 0.15 | 1.73 ± 0.018 | -0.577 ± 0.18 | 1.85 ± 0.1 |
| CUCUAU | -0.312 ± 0.034 | 1.61 ± 0.036 | -0.00561 ± 0.064 | 1.77 ± 0.096 |
| CUCUAG | 0.319 ± 0.13 | 1.764 ± 0.015 | 0.4467 ± 0.0016 | 1.83 ± 0.11 |
| CUCUAA | -0.433 ± 0.11 | 1.4 ± 0.083 | -0.0646 ± 0.21 | 1.61 ± 0.033 |
| CUCUAC | -0.26 ± 0.15 | 1.69 ± 0.038 | -0.0375 ± 0.07 | 1.82 ± 0.11 |
| GUACGA | -0.395 ± 0.055 | 1.43 ± 0.046 | -0.0985 ± 0.03 | 1.64 ± 0.077 |
| GUACGG | 0.00232 ± 0.14 | 1.62 ± 0.053 | 0.333 ± 0.011 | 1.77 ± 0.059 |
| GUACGC | -0.788 ± 0.17 | 1.77 ± 0.056 | -0.516 ± 0.067 | 1.88 ± 0.091 |

| Variant | FACS-Seq fitted mean (log10) [1] | normalized RNA/DNA level without ligand (log10) [2] | FACS-Seq fitted mean (log10) [3] | normalized RNA/DNA level with ligand (log10) [4] |
| --- | --- | --- | --- | --- |
| UUACCC | -0.256 ± 0.059 | 1.798 ± 0.0066 | 0.0203 ± 0.12 | 1.88 ± 0.11 |
| UUACCA | -0.0643 ± 0.075 | 1.75 ± 0.055 | 0.275 ± 0.047 | 1.84 ± 0.1 |
| CUGCAA | -0.468 ± 0.049 | 1.36 ± 0.11 | -0.0644 ± 0.035 | 1.59 ± 0.097 |
| CUACAA | -0.602 ± 0.069 | 1.48 ± 0.11 | -0.356 ± 0.025 | 1.68 ± 0.067 |
| CUACAC | -0.167 ± 0.016 | 1.699 ± 0.0052 | 0.0624 ± 0.12 | 1.83 ± 0.11 |
| CUGGAA | -0.647 ± 0.051 | 1.26 ± 0.1 | -0.397 ± 0.011 | 1.41 ± 0.06 |
| CUAAUG | -0.485 ± 0.042 | 1.49 ± 0.13 | -0.179 ± 0.011 | 1.7 ± 0.092 |
| CUAAUA | -0.533 ± 0.025 | 1.39 ± 0.066 | -0.316 ± 0.011 | 1.6 ± 0.12 |
| CUAAUU | -0.314 ± 0.073 | 1.537 ± 0.0049 | 0.0103 ± 0.0086 | 1.74 ± 0.081 |
| GUAUCA | -0.201 ± 0.17 | 1.62 ± 0.02 | 0.0998 ± 0.097 | 1.78 ± 0.094 |
| UUCGGA | -0.328 ± 0.044 | 1.58 ± 0.093 | 0.0771 ± 0.088 | 1.8 ± 0.081 |
| UUCGGC | -0.553 ± 0.015 | 1.81 ± 0.029 | -0.447 ± 0.062 | 1.9 ± 0.086 |
| CUCGAA | -0.00262 ± 0.0023 | 1.41 ± 0.12 | 0.32 ± 0.035 | 1.6 ± 0.097 |
| GUAGCA | 0.112 ± 0.04 | 1.83 ± 0.043 | 0.201 ± 0.053 | 1.87 ± 0.13 |
| GUAAGG | -0.295 ± 0.022 | 1.59 ± 0.078 | 0.0239 ± 0.038 | 1.74 ± 0.067 |
| AUAGUU | -0.615 ± 0.079 | 1.539 ± 0.0099 | -0.438 ± 0.02 | 1.73 ± 0.089 |
| AUAGUA | 0.0378 ± 0.13 | 1.5 ± 0.034 | 0.3053 ± 0.00099 | 1.65 ± 0.046 |
| GUCAAU | -0.201 ± 0.12 | 1.63 ± 0.034 | 0.152 ± 0.028 | 1.78 ± 0.087 |
| GUCAAA | -0.258 ± 0.074 | 1.56 ± 0.036 | 0.0433 ± 0.047 | 1.73 ± 0.095 |
| AUAUCC | -0.758 ± 0.046 | 1.73 ± 0.048 | -0.565 ± 0.012 | 1.9 ± 0.11 |
| AUGAAA | -0.678 ± 0.011 | 1.4 ± 0.14 | -0.502 ± 0.026 | 1.64 ± 0.1 |
| AUGAAC | -0.0137 ± 0.15 | 1.649 ± 0.0059 | 0.334 ± 0.026 | 1.79 ± 0.1 |
| GUAUUU | -0.574 ± 0.0067 | 1.686 ± 0.0056 | -0.186 ± 0.035 | 1.82 ± 0.085 |
| GUAUUG | -0.534 ± 0.043 | 1.53 ± 0.044 | -0.274 ± 0.037 | 1.71 ± 0.078 |

| Variant | FACS-Seq fitted mean (log10) [1] | normalized RNA/DNA level without ligand (log10) [2] | FACS-Seq fitted mean (log10) [3] | normalized RNA/DNA level with ligand (log10) [4] |
| --- | --- | --- | --- | --- |
| UUCGUG | -0.959 ± 0.031 | 1.71 ± 0.022 | -0.86 ± 0.094 | 1.86 ± 0.1 |
| UUAGUG | -0.38 ± 0.014 | 1.625 ± 0.0063 | -0.0431 ± 0.00068 | 1.81 ± 0.091 |
| AUGUAU | -0.148 ± 0.067 | 1.61 ± 0.036 | 0.196 ± 0.014 | 1.82 ± 0.052 |
| AUGUAC | -0.466 ± 0.057 | 1.6256 ± 0.0011 | -0.129 ± 0.17 | 1.79 ± 0.077 |
| CUGUCA | -0.00992 ± 0.023 | 1.52 ± 0.13 | 0.247 ± 0.011 | 1.68 ± 0.13 |
| GUAUGA | -0.487 ± 0.16 | 1.42 ± 0.092 | -0.189 ± 0.072 | 1.67 ± 0.081 |
| GUCCUG | -0.102 ± 0.019 | 1.68 ± 0.022 | 0.19 ± 0.09 | 1.83 ± 0.14 |
| UUGGCU | -0.121 ± 0.069 | 1.789 ± 0.009 | 0.192 ± 0.12 | 1.88 ± 0.15 |
| AUGACU | -1.21 ± 0.091 | 1.71 ± 0.0041 | -0.93 ± 0.06 | 1.85 ± 0.11 |
| GUAUAG | -1.32 ± 0.018 | 1.56 ± 0.12 | -1.05 ± 0.12 | 1.74 ± 0.063 |
| GUCGCG | -0.376 ± 0.016 | 1.76 ± 0.018 | -0.0454 ± 0.13 | 1.82 ± 0.071 |
| GUCGCU | -0.798 ± 0.048 | 1.683 ± 0.0047 | -0.654 ± 0.068 | 1.87 ± 0.065 |
| CUGAUA | -0.362 ± 0.04 | 1.27 ± 0.11 | -0.182 ± 0.1 | 1.5 ± 0.1 |
| CUGAUU | -0.154 ± 0.084 | 1.505 ± 0.015 | 0.107 ± 0.18 | 1.71 ± 0.12 |
| CUGAUG | -0.749 ± 0.029 | 1.39 ± 0.12 | -0.5264 ± 0.0006 | 1.58 ± 0.081 |
| CUCUUG | 0.116 ± 0.092 | 1.73 ± 0.029 | 0.381 ± 0.043 | 1.86 ± 0.096 |
| CUCUUA | -0.241 ± 0.082 | 1.46 ± 0.067 | -0.0535 ± 0.053 | 1.65 ± 0.11 |
| AUAUAG | -0.0556 ± 0.15 | 1.61 ± 0.046 | 0.255 ± 0.02 | 1.74 ± 0.074 |
| CUAUUA | -0.459 ± 0.052 | 1.38 ± 0.033 | -0.243 ± 0.052 | 1.6 ± 0.064 |
| GUGAUG | -0.401 ± 0.17 | 1.54 ± 0.09 | -0.137 ± 0.01 | 1.73 ± 0.068 |
| GUGAUU | -0.56 ± 0.007 | 1.621 ± 0.01 | -0.311 ± 0.025 | 1.79 ± 0.088 |
| GUGAUC | -0.464 ± 0.047 | 1.15 ± 0.17 | -0.114 ± 0.0038 | 1.27 ± 0.017 |
| UUAUCC | -0.109 ± 0.15 | 1.76 ± 0.023 | 0.218 ± 0.082 | 1.86 ± 0.084 |
